Data reported in US20240052059A1 (PUBLIC UNIVERSITY CORPORATION NARA MEDICAL UNIVERSITY, published 2024).

Target: FIX remaining in commercially-available FIX-deficient human plasma (trace amount) (human, UniProt P00740 47-461)
Assay: cell-based or functional assay

Chain of FIX remaining in commercially-available FIX-deficient human plasma (trace amount) (P00740 47-461 limits assumed): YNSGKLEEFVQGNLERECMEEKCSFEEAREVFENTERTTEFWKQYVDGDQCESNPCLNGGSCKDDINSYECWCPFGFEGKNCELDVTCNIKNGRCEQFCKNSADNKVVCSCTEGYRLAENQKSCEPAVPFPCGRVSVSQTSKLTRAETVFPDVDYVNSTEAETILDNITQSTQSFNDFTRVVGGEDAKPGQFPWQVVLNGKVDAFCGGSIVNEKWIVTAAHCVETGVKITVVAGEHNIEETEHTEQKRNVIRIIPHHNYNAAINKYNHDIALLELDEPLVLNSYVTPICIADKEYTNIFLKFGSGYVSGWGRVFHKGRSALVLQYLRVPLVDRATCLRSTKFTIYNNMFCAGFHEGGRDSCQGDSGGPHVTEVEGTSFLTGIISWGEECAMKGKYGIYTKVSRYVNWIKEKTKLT

B1: ACE910 (Emicizumab), anti-FIXa/FX bispecific antibody (Q499-z121/J327-z119/L404-k) (bispecific antibody, human IgG4 S228P, kappa)
heavy 1: QVQLVESGGGLVQPGGSLRLSCAASGFTFSYYDIQWVRQAPGKGLEWVSSISPSGQSTYYRREVKGRFTISRDNSKNTLYLQMNSLRAEDTAVYYCARRTGREYGGGWYFDYWGQGTLVTVSSASTKGPSVFPLAPCSRSTSESTAALGCLVKDYFPEPVTVSWNSGALTSGVHTFPAVLQSSGLYSLSSVVTVPSSSLGTQTYTCNVDHKPSNTKVDKRVESKYGPPCPPCPAPEFLGGPSVFLFPPKPKDTLMISRTPEVTCVVVDVSQEDPEVQFNWYVDGVEVHNAKTKPREEQYNSTYRVVSVLTVLHQDWLNGKEYKCKVSNKGLPSSIEKTISKAKGQPREPQVYTLPPSQKEMTKNQVSLTCLVKGFYPSDIAVEWESNGQPENNYKTTPPVLDSDGSFFLYSKLTVDKSRWQEGNVFSCSVMHEALHNRYTQKSLSLSP
heavy 2: QVQLVQSGSELKKPGASVKVSCKASGYTFTDNNMDWVRQAPGQGLEWMGDINTRSGGSIYNEEFQDRVIMTVDKSTDTAYMELSSLRSEDTATYHCARRKSYGYYLDEWGEGTLVTVSSASTKGPSVFPLAPCSRSTSESTAALGCLVKDYFPEPVTVSWNSGALTSGVHTFPAVLQSSGLYSLSSVVTVPSSSLGTQTYTCNVDHKPSNTKVDKRVESKYGPPCPPCPAPEFLGGPSVFLFPPKPKDTLMISRTPEVTCVVVDVSQEDPEVQFNWYVDGVEVHNAKTKPREEQYNSTYRVVSVLTVLHQDWLNGKEYKCKVSNKGLPSSIEKTISKAKGQPREPQVYTLPPSQEEMTKNQVSLTCLVKGFYPSDIAVEWESNGQPENNYKTTPPVLDSDGSFFLYSKLTVDKSRWQEGNVFSCSVMHEALHNHYTQESLSLSP
light: DIQMTQSPSSLSASVGDRVTITCKASRNIERQLAWYQQKPGQAPELLIYQASRKESGVPDRFSGSRYGTDFTLTISSLQPEDIATYYCQQYSDPPLTFGGGTKVEIKRTVAAPSVFIFPPSDEQLKSGTASVVCLLNNFYPREAKVQWKVDNALQSGNSQESVTEQDSKDSTYSLSSTLTLSKADYEKHKVYACEVTHQGLSSPVTKSFNRGEC
APTT shortening ratio with 100 ug/mL ACE910 in FIX-deficient human plasma without FIX formulation, after further addition of anti-FIX-Gla antibody (150 ug/mL): -3%
